Assay [1] has as its target TnpA^IS1535 C-terminal domain (CTD), residues 51-193 (Mycobacterium tuberculosis). Briefly: crystal structure; TnpA^IS1535 CTD (51-193), hanging drop, 0.3 M sodium acetate pH 5.0, 1 mM TCEP mixed with 0.2 M sodium citrate + 20% PEG3350; 2.5 Å; one dimer in the asymmetric unit.
The target in assay [2] is TnpA^IS1535 single-cysteine mutant Cys162 (three native cysteines replaced with serines) (Mycobacterium tuberculosis). Briefly: cross-linking; disulfide cross-linking of cysteine-substituted TnpA^IS1535: oxidation with 0.2 mM diamide at 4°C overnight in 25 mM HEPES pH 7.5, 1 M Na acetate, 20% glycerol; non-reducing SDS-PAGE.

For the substance “TnpA^IS1535 C-terminal domain (CTD), residues 51-193 (domain or fragment)”, in assay [1], the stoichiometry N – broadly, a count of units in the complex or per binding partner – was 2.

Take “TnpA^IS1535 single-cysteine mutant Cys162 (three native cysteines replaced with serines) (enzyme)”: the percent disulfide-linked dimers in assay [2] was found to be 40%.
